Target: MHC Class I heavy chains (HLA-A, B and C molecules) on CB23, HSB2, MP-1, Jurkat, primary T cells, primary B cells and primary NK cells
Experiment: flow cytometry competition; W6/32 at 0, 2, 5 or 10 µg in 100 µL, competitor 5 µg P3G2/Fc

amount of W6/32 at which P3G2 binding was totally blocked: 5 µg
Substance: W6/32 (ATCC HB-95), an antibody against MHC Class I heavy chains
